In patent US20260217818A1 (Y BIOLOGICS, published 2026):

T1: human claudin-18.2 (claudin-18 spliced variant 2, CLDN18.2) overexpressed on HEK293E/18.2 or CHO-K1/18.2 cells (human, UniProt P56856 1-261)
T1 sequence: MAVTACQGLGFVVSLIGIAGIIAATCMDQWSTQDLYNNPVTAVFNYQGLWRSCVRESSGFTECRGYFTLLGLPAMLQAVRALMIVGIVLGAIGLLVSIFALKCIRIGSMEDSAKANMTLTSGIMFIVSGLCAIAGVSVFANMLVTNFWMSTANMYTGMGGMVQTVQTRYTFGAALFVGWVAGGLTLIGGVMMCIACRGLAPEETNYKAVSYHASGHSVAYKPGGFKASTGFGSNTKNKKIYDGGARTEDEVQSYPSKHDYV

T2: human CLDN18.1 protein (EUPROTEIN, #EPY255141), coated antigen (human, UniProt P56856 1-261, limits assumed)
T2 construct: Bought antigen; also called CLDN18.1 antigen
T2 sequence (looked up): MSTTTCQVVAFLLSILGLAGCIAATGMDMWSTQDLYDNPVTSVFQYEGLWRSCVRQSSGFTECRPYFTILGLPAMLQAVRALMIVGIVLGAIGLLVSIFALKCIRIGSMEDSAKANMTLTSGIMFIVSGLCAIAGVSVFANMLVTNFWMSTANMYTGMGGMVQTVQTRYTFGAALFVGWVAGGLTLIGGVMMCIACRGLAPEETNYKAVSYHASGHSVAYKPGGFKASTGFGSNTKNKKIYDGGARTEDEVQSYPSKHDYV

T3: human CLDN18.2 protein (CUSABIO, #CSB-MP005498HU (A5)), coated antigen (human, UniProt P56856 1-261)
T3 construct: also called CLDN18.2 antigen; CLDN18.2-VLPs antigen
T3 sequence: T1 sequence

B1: 0058-003 (antibody, V domains shown)
VH: QVQLVQSGGGLVQPGGSLRLSCAASGFTFSSYAMSWVRQAPGKGLEWVSAISGSGGSTYYADSVKGRFTISRDNSKNTLYLQMNSLRAEDTAVYYCARGAASSYYFDYWGLGTTVTVSS
VL: DIQMTQSPSSLAAYVGDTVTITCRASAGVRNYLAWVQQKPGKAPRSLIYGAFKLQSGVPSRFSGSGSGTEFTLTISSLQPEDFGTYYCQQYHSFPPTFGGGTKVDIK
notes: scFv clone from a human phage library, converted into IgG form for the experiments; also called anti-CLDN18.2 antibody 0058-003; monoclone 0058-003
B2: 0058-002 (antibody, V domains shown)
VH: QMQLVESGGGLVQPGGSLRLSCAASGFTFSSYAMSWVRQAPGKGLEWVSAISGSGGSTYYADSVKGRFTISRDNSKNTLYLQMNSLRAEDTAVYYCARGLGYYYYGMDVWGQGTTVTVSS
VL: DIQMTQSPSSLSASVGDRVTITCRASQTVSSWLAWYQQKPGKAPKLLIYAASSLQSGVPSRFSGSGSGTEFTLTISSLQPEDFGTYYCQQYHSFPPTFGGGTKVGIK
notes: scFv clone from a human phage library, converted into IgG form for the experiments; also called anti-CLDN18.2 antibody 0058-002; monoclone 0058-002
B3: 0058-001 (antibody, V domains shown)
VH: QVQLVESGGGLVQPGGSLRLSCAASGFTFSSYAMSWVRQAPGKGLEWVAAISGSGGSTYFADSVRGRFTISRDNPQSTLYLQMNSLRAEDTAVYYCAKEGVWWLRYFDHWGQGTPITVSS
VL: QSALTQPRSVSGSPGQSVTISCTGTSNDVGGYTYVSWYQQHPGKAPKLMIYDVSKRPSGVPDRFSGSKSGNTASLTISGLQAEDEADYYCSSYAGSYTWVFGGGTKLTVL
notes: scFv clone from a human phage library, converted into IgG form for the experiments; also called anti-CLDN18.2 antibody 0058-001; monoclone 0058-001

Tests used:
[1] = target: T1, human claudin-18.2 (claudin-18 spliced …); assay: cell-based or functional assay
[2] = target: T1, human claudin-18.2 (claudin-18 spliced …); assay: cell-based or functional assay; remark: listed apart in the source
[3] = target: T2, human CLDN18.1 protein (EUPROTEIN, …); assay: ELISA, CLDN18.1 coated at 1 µg/mL, serially diluted antibody
Experimental: (§1) CLDN18.1 (EUPROTEIN, #EPY255141) and CLDN18.2 (CUSABIO, #CSB-MP005498HU (A5)) proteins were each prepared at a concentration of 1 μg/mL using a dilution buffer (4% skim milk/0.05% tween-20/PBS), and 100 μL of each was added to individual wells of an immunoassay plate (Thermo, #439454) and incubated statically at 4° C. for more than 16 hours. After three washes with 300 μL of wash buffer (0.05% tween-20/PBS), 200 μL of blocking buffer (4% skim milk/0.05% tween-20/PBS) was added to the wells and incubated for 1 hour at room temperature. After three washes, 100 μL of the anti-CLDN18.2 antibodies, each prepared by serial dilution, was added to each well and incubated at room temperature for 1 hour with rocking. After three washes, 100 μL of anti-human kappa-HRP (Sigma, #A7164) antibody, prepared at dilution ratio of 1:3,000, was added to each well and incubated at room temperature for 1 hour. After three washes, 100 μL of TMB substrate (Sigma, #T0440) was added to each well and incubated in the dark at room temperature, and when color development was observed, 50 μL of stop solution (1N H₂SO₄) was added to stop the reaction. Absorbance was measured using a microplate reader (Promega, GM3000).

[4] = target: T3, human CLDN18.2 protein (CUSABIO, …); assay: ELISA, CLDN18.2 coated at 1 µg/mL, serially diluted antibody
Experimental: as §1

| Binder | cellular internalization (IncuCyte FabFluor, HEK293E/18.2 cells) [1] | Cell viability (%) at 10 nM, HEK293E/18.2 (Fab-ZAP assay) [2] | IC50 (nM), HEK293E/18.2 (Fab-ZAP assay) [2] | binding result [3] | binding result [4] |
| --- | --- | --- | --- | --- | --- |
| B1 | 50% | 56% | 0.04 nM | no binding | binds |
| B2 | 50% | 58% | 0.04 nM | no binding | binds |
| B3 | 50% | 76% | 0.1 nM | no binding | binds |
